Results from PMC7532178, “Interaction of protocadherin-15 with the scaffold protein whirlin supports its anchoring of hair-bundle lateral links in cochlear hair cells” (Scientific Reports, 2020).
No end group written: not given here. *: point of attachment. Biotin = O=C1N[C@H]2[C@H](CS[C@H]2CCCCC(=O)*)N1; TTDS = trioxatridecan-succinamic acid spacer

B1: PCDH15-CD1 C-terminal peptide (biotin-TTDS-GIDVQPHSQSTSL) (peptide)
peptide: {Biotin-TTDS}-GIDVQPHSQSTSL
notes: C-terminal 13 aa of protocadherin-15 isoform CD1, including the PBM; source: synthetic peptide (Eurogentec); not shown: biotin, N-terminal, kept
B2: PCDH15-CD2 C-terminal peptide (biotin-TTDS-GANSEQYNTAL) (peptide)
peptide: {Biotin-TTDS}-GANSEQYNTAL
notes: C-terminal 11 aa of protocadherin-15 isoform CD2, including the PBM; source: synthetic peptide (Eurogentec); not shown: biotin, N-terminal, kept
B3: PCDH15-CD3 C-terminal peptide (biotin-TTDS-MGPWNSLHIPMTKL) (peptide)
peptide: {Biotin-TTDS}-MGPWNSLHIPMTKL
notes: C-terminal 14 aa of protocadherin-15 isoform CD3, including the PBM; source: synthetic peptide (Eurogentec); not shown: biotin, N-terminal, kept

target: T1, whirlin-NTR-PDZ1-Hp1 (aa residues 2-265) (mouse, UniProt Q80VW5-1 2-265); test: SPR; ProteOn XPR 36; N-terminally biotinylated peptides captured on a Neutravidin NLC sensor chip, whirlin fragments flowed as analytes at 20 μL/min for 2 min; 250 mM NaCl, 50 mM Tris pH 7.5, 0.5 mM TCEP; steady-state fit Req = (Rmax*C)/(Kd+C); mean of three experiments; Figure 4B shows the responses at 10 μM; settings: both partners purified
T1 construct: extra 7 aa at the N-terminus of all recombinant proteins of the study; whirlin (long isoform, L-whirlin), residues 2-265: NTR (with HHD1), PDZ1 and hairpin Hp1; The methods call the 2-265 construct whirlin-NTR-PDZ1; also called NTR-PDZ1-Hp1 whirlin fragment; Nter-PDZ1-Hp1; source: E. coli BL21 (DE3) codonPlus-RIPL, purified (Glutathione Sepharose 4B, GST removed by TEV proteinase, SEC)
T1 sequence: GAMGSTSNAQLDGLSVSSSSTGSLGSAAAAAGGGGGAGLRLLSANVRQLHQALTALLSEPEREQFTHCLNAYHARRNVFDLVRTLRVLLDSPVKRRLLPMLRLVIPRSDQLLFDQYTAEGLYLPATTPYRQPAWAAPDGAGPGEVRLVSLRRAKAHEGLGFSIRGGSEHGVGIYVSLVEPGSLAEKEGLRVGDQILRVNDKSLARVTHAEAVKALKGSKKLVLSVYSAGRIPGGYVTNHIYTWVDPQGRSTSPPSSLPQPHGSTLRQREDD

**Q.** B1 was tested. Which Kd did it give?
**A.** Its Kd is 8.8 µM.

**Q.** Which Kd does the source give for B2 here?
**A.** Its Kd is 8.5 µM.

**Q.** For B3, which Kd is on record?
**A.** The Kd was 4.2 µM.

target: T2, harmonin-NTD-PDZ1 (aa 1-192) (UniProt Q9ES64 1-192); test: SPR; harmonin fragments or full-length harmonin-a1 with C-terminal peptides; Fig. S10 and data not shown; settings: both partners purified
T2 construct: extra 7 aa at the N-terminus of all recombinant proteins of the study; harmonin, residues 1-192 (NTD and PDZ1), numbers on GenBank AF228925.1; also called NTD-PDZ1-Hp domain of harmonin; source: E. coli BL21 (DE3) codonPlus-RIPL, purified (Glutathione Sepharose 4B, GST removed by TEV proteinase, SEC)
T2 sequence: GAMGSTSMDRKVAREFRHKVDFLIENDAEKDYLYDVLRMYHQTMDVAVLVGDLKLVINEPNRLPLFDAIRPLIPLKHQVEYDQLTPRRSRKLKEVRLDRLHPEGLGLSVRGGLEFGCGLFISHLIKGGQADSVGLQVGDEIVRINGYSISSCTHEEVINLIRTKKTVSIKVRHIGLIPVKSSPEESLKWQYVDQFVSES

**Q.** With B1 as the binder, how does the Kd read?
**A.** The Kd was > 200 µM.

**Q.** For B2, which Kd is on record?
**A.** The Kd was > 200 µM.

**Q.** How did the Kd turn out when B3 was run?
**A.** Its Kd is > 200 µM.

target: T3, harmonin-PDZ2 (aa residues 197-308) (UniProt Q9ES64 197-308); test: as above; settings: both partners purified
T3 construct: extra 7 aa at the N-terminus of all recombinant proteins of the study; harmonin, residues 197-308 (PDZ2), numbers on GenBank AF228925.1; also called PDZ2 domain of harmonin; source: E. coli BL21 (DE3) codonPlus-RIPL, purified (Glutathione Sepharose 4B, GST removed by TEV proteinase, SEC)
T3 sequence: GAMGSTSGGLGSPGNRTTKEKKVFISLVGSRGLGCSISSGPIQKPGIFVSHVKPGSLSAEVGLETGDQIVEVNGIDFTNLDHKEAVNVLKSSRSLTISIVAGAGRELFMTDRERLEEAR

**Q.** Which Kd does the source give for B1 here?
**A.** The Kd was > 200 µM.

**Q.** B2 was tested. Which Kd did it give?
**A.** The Kd was > 200 µM.

**Q.** Which Kd does the source give for B3 here?
**A.** Its Kd is > 200 µM.
